Measured values: paper PMC8809517, “Cofactor-independent RNA editing by a synthetic S-type PPR protein”

T1: GFP-9S library array, motif 4 ND N98K;D124L (synthetic construct, N98K;D124L)
T1 chain: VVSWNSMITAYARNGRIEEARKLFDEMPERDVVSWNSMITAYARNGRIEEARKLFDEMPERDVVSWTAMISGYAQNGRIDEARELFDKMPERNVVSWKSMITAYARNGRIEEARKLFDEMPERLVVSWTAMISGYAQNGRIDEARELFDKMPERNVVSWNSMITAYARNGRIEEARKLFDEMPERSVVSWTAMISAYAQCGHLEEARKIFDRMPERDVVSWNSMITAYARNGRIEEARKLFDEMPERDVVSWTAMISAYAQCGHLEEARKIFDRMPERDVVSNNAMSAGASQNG

T2: GFP-9S library array, motif 4 ND N98G;D124N (synthetic construct, N98G;D124N)
T2 chain: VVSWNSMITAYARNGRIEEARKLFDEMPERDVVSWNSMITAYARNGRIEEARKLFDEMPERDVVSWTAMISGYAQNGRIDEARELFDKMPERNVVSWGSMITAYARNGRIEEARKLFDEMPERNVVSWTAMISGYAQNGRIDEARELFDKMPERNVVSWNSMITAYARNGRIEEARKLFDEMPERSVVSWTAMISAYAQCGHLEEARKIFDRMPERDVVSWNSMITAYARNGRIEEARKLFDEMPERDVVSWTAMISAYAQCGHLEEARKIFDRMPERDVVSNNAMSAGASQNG

T3: GFP-9S library array, motif 4 ND N98S;D124P (synthetic construct, N98S;D124P)
T3 chain: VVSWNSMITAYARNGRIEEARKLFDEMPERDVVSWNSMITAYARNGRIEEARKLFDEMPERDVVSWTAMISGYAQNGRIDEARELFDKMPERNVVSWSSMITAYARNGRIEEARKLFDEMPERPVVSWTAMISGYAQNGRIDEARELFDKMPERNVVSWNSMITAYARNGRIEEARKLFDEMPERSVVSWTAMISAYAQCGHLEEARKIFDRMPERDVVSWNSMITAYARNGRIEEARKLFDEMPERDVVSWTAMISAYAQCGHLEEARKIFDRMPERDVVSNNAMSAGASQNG

T4: GFP-9S library array, motif 4 ND N98C;D124A (synthetic construct, N98C;D124A)
T4 chain: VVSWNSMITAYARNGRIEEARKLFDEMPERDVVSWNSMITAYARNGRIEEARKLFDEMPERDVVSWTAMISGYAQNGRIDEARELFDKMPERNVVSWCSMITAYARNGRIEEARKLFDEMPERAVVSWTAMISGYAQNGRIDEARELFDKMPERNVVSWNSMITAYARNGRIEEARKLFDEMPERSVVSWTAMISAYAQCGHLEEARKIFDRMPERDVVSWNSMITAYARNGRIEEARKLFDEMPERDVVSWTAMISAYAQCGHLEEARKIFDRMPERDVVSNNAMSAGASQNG

T5: GFP-9S library array, motif 4 ND N98V;D124S (synthetic construct, N98V;D124S)
T5 chain: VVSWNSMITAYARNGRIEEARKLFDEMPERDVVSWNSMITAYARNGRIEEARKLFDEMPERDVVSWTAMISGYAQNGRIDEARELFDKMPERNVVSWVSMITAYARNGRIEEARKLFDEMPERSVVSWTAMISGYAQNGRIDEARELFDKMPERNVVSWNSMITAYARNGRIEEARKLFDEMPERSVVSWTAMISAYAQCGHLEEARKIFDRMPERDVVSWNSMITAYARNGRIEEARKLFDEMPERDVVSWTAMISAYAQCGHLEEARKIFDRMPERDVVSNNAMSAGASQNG


What was measured:
Test in all cases: high-throughput RNA pulldown from lysate on Ni-NTA beads; HRP: 50 mM Tris pH 8, 150 mM NaCl, 1 mM beta-mercaptoethanol, 50 ug/ml BSA, 3 ug/ml yeast RNA, 0.5% heparin; ITC and FP: Tris pH 8, 200 mM KCl, 5% glycerol; MST: 50 mM Tris pH 8, 200 mM NaCl, 1 mM DTT, BSA, heparin, 0.05% Tween 20
Details in all cases: tags: N-terminal His-eGFP
[1] = biological target: T1, GFP-9S library array, motif 4 ND …
[2] = biological target: T2, GFP-9S library array, motif 4 ND …
[3] = biological target: T3, GFP-9S library array, motif 4 ND …
[4] = biological target: T4, GFP-9S library array, motif 4 ND …
[5] = biological target: T5, GFP-9S library array, motif 4 ND …

Binder | Kd ([1]; label: 5' Cy5) | Kd ([2]; label: 5' Cy5) | Kd ([3]; label: 5' Cy5) | Kd ([4]; label: 5' Cy5) | Kd ([5]; label: 5' Cy5) | Kd ([1]; label: 5' IRDye 800CW) | Kd ([2]; label: 5' IRDye 800CW) | Kd ([3]; label: 5' IRDye 800CW) | Kd ([4]; label: 5' IRDye 800CW) | Kd ([5]; label: 5' IRDye 800CW)
AUUAGACGUGA (ssRNA) [Cy5-rpoA-G] | 73.5 nM | 276 nM | 121 nM | 92.3 nM | 50.4 nM | – | – | – | – | –
AUUAUACGUGA (ssRNA) [IR-rpoA-U] | – | – | – | – | – | 174 nM | 82.7 nM | 253 nM | 159 nM | 50.3 nM
AUUAAACGUGA (ssRNA) [IR-rpoA-A] | – | – | – | – | – | 151 nM | 41.2 nM | 224 nM | 98.2 nM | 26.8 nM
AUUACACGUGA (ssRNA) [Cy5-rpoA] | 83.5 nM | 155 nM | 122 nM | 114 nM | 69.5 nM | – | – | – | – | –
